From FireProtDB (doi:10.1073/pnas.88.5.1706) come the findings set out here.

To fix the notation:
B1: DNA-Binding protein, P69542 (parent)
chain: MIKVEIKPSQAQFTTRSGVSRQGKPYSLNEQLCYVDLGNEYPVLVKITLDEGQPAYAPGLYTVHLSSFKVGQFGSLMIDRLRLVPAK

Variants of B1 are the subject of this series. The note with it: Enterobacteria phage fd; pH 7; 25 °C; GdnHCl; CD; MOPS 50 mM; NaCl 100 mM; reversible: yes; structure 1VQB; whole UniProt chain shown.

In the case of MIKVEIKPSQAQFTTRSGVSRQGKPYSLNEQLCYIDLGNEYPVLVKLTLDEGQPAYAPGLYTVHLSSFKVGQFGSLMIDRLRLVPAK [V35I I47L], the “ddG of mutation (higher = less stable)” value is 1.1 kcal/mol, the denaturant m value came out at 4.2 kcal/mol/M, the “denaturant midpoint (higher = more stable)” value (from here on “denaturant midpoint”) worked out at 2.27 M and the unfolding free energy came out at 7.9 kcal/mol.
On to MIKVEIKPSQAQFTTRSGVSRQGKPYSLNEQLCYIDLGNEYPVLVKMTLDEGQPAYAPGLYTVHLSSFKVGQFGSLMIDRLRLVPAK [V35I I47M], for which the “ddG of mutation (higher = less stable)” value is 2.8 kcal/mol, the denaturant m value turned out to be 4.2 kcal/mol/M, the “denaturant midpoint” value came to 1.87 M and the unfolding free energy was determined as 6.3 kcal/mol.
The like results for MIKVEIKPSQAQFTTRSGVSRQGKPYSLNEQLCYIDLGNEYPVLVKFTLDEGQPAYAPGLYTVHLSSFKVGQFGSLMIDRLRLVPAK [V35I I47F] were, in that order, 2 kcal/mol, 4.4 kcal/mol/M, 2.05 M and 7 kcal/mol.
For MIKVEIKPSQAQFTTRSGVSRQGKPYSLNEQLCYIDLGNEYPVLVKVTLDEGQPAYAPGLYTVHLSSFKVGQFGSLMIDRLRLVPAK [V35I I47V], in that order: 3 kcal/mol, 4.1 kcal/mol/M, 1.8 M and 6 kcal/mol.
For MIKVEIKPSQAQFTTRSGVSRQGKPYSLNEQLCYMDLGNEYPVLVKLTLDEGQPAYAPGLYTVHLSSFKVGQFGSLMIDRLRLVPAK [V35M I47L], in that order: 1.6 kcal/mol, 4.1 kcal/mol/M, 2.14 M and 7.4 kcal/mol.
Take MIKVEIKPSQAQFTTRSGVSRQGKPYSLNEQLCYMDLGNEYPVLVKFTLDEGQPAYAPGLYTVHLSSFKVGQFGSLMIDRLRLVPAK [V35M I47F]: the “ddG of mutation (higher = less stable)” value is 2.3 kcal/mol, the denaturant m value came to 4.7 kcal/mol/M, the “denaturant midpoint” value amounted to 1.99 M and the unfolding free energy was 6.8 kcal/mol.
Consider MIKVEIKPSQAQFTTRSGVSRQGKPYSLNEQLCYMDLGNEYPVLVKMTLDEGQPAYAPGLYTVHLSSFKVGQFGSLMIDRLRLVPAK [V35M I47M], for which the “ddG of mutation (higher = less stable)” value turned out to be 3.5 kcal/mol, the denaturant m value is 3.8 kcal/mol/M, the “denaturant midpoint” value worked out at 1.65 M and the unfolding free energy was found to be 5.5 kcal/mol.
For MIKVEIKPSQAQFTTRSGVSRQGKPYSLNEQLCYMDLGNEYPVLVKITLDEGQPAYAPGLYTVHLSSFKVGQFGSLMIDRLRLVPAK [V35M], in that order: 1 kcal/mol, 3.6 kcal/mol/M, 2.33 M and 8 kcal/mol.
For MIKVEIKPSQAQFTTRSGVSRQGKPYSLNEQLCYLDLGNEYPVLVKITLDEGQPAYAPGLYTVHLSSFKVGQFGSLMIDRLRLVPAK [V35L], in that order: 2.7 kcal/mol, 4.5 kcal/mol/M, 1.9 M and 6.4 kcal/mol.
For MIKVEIKPSQAQFTTRSGVSRQGKPYSLNEQLCYCDLGNEYPVLVKITLDEGQPAYAPGLYTVHLSSFKVGQFGSLMIDRLRLVPAK [V35C], in that order: 1.4 kcal/mol, 4.1 kcal/mol/M, 2.21 M and 7.7 kcal/mol.
On to MIKVEIKPSQAQFTTRSGVSRQGKPYSLNEQLCYIDLGNEYPVLVKITLDEGQPAYAPGLYTVHLSSFKVGQFGSLMIDRLRLVPAK [V35I], for which the “ddG of mutation (higher = less stable)” value is 0.6 kcal/mol, the denaturant m value came to 3.6 kcal/mol/M, the “denaturant midpoint” value was 2.44 M and the unfolding free energy is 8.4 kcal/mol.
The like results for MIKVEIKPSQAQFTTRSGVSRQGKPYSLNEQLCYFDLGNEYPVLVKITLDEGQPAYAPGLYTVHLSSFKVGQFGSLMIDRLRLVPAK [V35F] were, in that order, 3.1 kcal/mol, 3.8 kcal/mol/M, 1.76 M and 5.9 kcal/mol.
Consider MIKVEIKPSQAQFTTRSGVSRQGKPYSLNEQLCYADLGNEYPVLVKITLDEGQPAYAPGLYTVHLSSFKVGQFGSLMIDRLRLVPAK [V35A], for which the “ddG of mutation (higher = less stable)” value was 2.2 kcal/mol, the denaturant m value is 3.9 kcal/mol/M, the “denaturant midpoint” value came to 2.01 M and the unfolding free energy turned out to be 6.9 kcal/mol.
As for MIKVEIKPSQAQFTTRSGVSRQGKPYSLNEQLCYLDLGNEYPVLVKMTLDEGQPAYAPGLYTVHLSSFKVGQFGSLMIDRLRLVPAK [V35L I47M], the “ddG of mutation (higher = less stable)” value is 5.3 kcal/mol, the denaturant m value is 5 kcal/mol/M, the “denaturant midpoint” value worked out at 1.37 M and the unfolding free energy is 3.7 kcal/mol.
MIKVEIKPSQAQFTTRSGVSRQGKPYSLNEQLCYLDLGNEYPVLVKLTLDEGQPAYAPGLYTVHLSSFKVGQFGSLMIDRLRLVPAK [V35L I47L]: the “ddG of mutation (higher = less stable)” value was found to be 3.5 kcal/mol, the denaturant m value was 4.3 kcal/mol/M, the “denaturant midpoint” value is 1.7 M and the unfolding free energy amounted to 5.5 kcal/mol.
The like results for MIKVEIKPSQAQFTTRSGVSRQGKPYSLNEQLCYLDLGNEYPVLVKFTLDEGQPAYAPGLYTVHLSSFKVGQFGSLMIDRLRLVPAK [V35L I47F] were, in that order, 3.94 kcal/mol, 4.3 kcal/mol/M, 1.6 M and 5.1 kcal/mol.
For MIKVEIKPSQAQFTTRSGVSRQGKPYSLNEQLCYLDLGNEYPVLVKVTLDEGQPAYAPGLYTVHLSSFKVGQFGSLMIDRLRLVPAK [V35L I47V], in that order: 5 kcal/mol, 4.2 kcal/mol/M, 1.32 M and 4 kcal/mol.
Take MIKVEIKPSQAQFTTRSGVSRQGKPYSLNEQLCYFDLGNEYPVLVKLTLDEGQPAYAPGLYTVHLSSFKVGQFGSLMIDRLRLVPAK [V35F I47L]: the “ddG of mutation (higher = less stable)” value amounted to 4.1 kcal/mol, the denaturant m value was determined as 3.9 kcal/mol/M, the “denaturant midpoint” value is 1.51 M and the unfolding free energy was 4.9 kcal/mol.
For MIKVEIKPSQAQFTTRSGVSRQGKPYSLNEQLCYVDLGNEYPVLVKMTLDEGQPAYAPGLYTVHLSSFKVGQFGSLMIDRLRLVPAK [I47M], in that order: 2.1 kcal/mol, 3.9 kcal/mol/M, 2.02 M and 6.9 kcal/mol.
For the variant MIKVEIKPSQAQFTTRSGVSRQGKPYSLNEQLCYVDLGNEYPVLVKATLDEGQPAYAPGLYTVHLSSFKVGQFGSLMIDRLRLVPAK [I47A], the “ddG of mutation (higher = less stable)” value stood at 7 kcal/mol, the denaturant m value came out at 4.3 kcal/mol/M, the “denaturant midpoint” value worked out at 0.87 M and the unfolding free energy was determined as 2 kcal/mol.
Take MIKVEIKPSQAQFTTRSGVSRQGKPYSLNEQLCYVDLGNEYPVLVKLTLDEGQPAYAPGLYTVHLSSFKVGQFGSLMIDRLRLVPAK [I47L]: the “ddG of mutation (higher = less stable)” value worked out at 0.6 kcal/mol, the denaturant m value turned out to be 3.7 kcal/mol/M, the “denaturant midpoint” value was 2.43 M and the unfolding free energy was determined as 8.4 kcal/mol.
In the case of MIKVEIKPSQAQFTTRSGVSRQGKPYSLNEQLCYVDLGNEYPVLVKVTLDEGQPAYAPGLYTVHLSSFKVGQFGSLMIDRLRLVPAK [I47V], the “ddG of mutation (higher = less stable)” value was 2.5 kcal/mol, the denaturant m value is 3.9 kcal/mol/M, the “denaturant midpoint” value was determined as 1.91 M and the unfolding free energy came out at 6.5 kcal/mol.
With MIKVEIKPSQAQFTTRSGVSRQGKPYSLNEQLCYADLGNEYPVLVKMTLDEGQPAYAPGLYTVHLSSFKVGQFGSLMIDRLRLVPAK [V35A I47M], the “ddG of mutation (higher = less stable)” value worked out at 4.4 kcal/mol, the denaturant m value is 4.2 kcal/mol/M, the “denaturant midpoint” value was 1.47 M and the unfolding free energy was 4.6 kcal/mol.
For MIKVEIKPSQAQFTTRSGVSRQGKPYSLNEQLCYADLGNEYPVLVKLTLDEGQPAYAPGLYTVHLSSFKVGQFGSLMIDRLRLVPAK [V35A I47L], in that order: 2.9 kcal/mol, 4.5 kcal/mol/M, 1.85 M and 6.1 kcal/mol.
The like results for MIKVEIKPSQAQFTTRSGVSRQGKPYSLNEQLCYADLGNEYPVLVKVTLDEGQPAYAPGLYTVHLSSFKVGQFGSLMIDRLRLVPAK [V35A I47V] were, in that order, 4.4 kcal/mol, 4.5 kcal/mol/M, 1.5 M and 4.6 kcal/mol.
With MIKVEIKPSQAQFTTRSGVSRQGKPYSLNEQLCYCDLGNEYPVLVKCTLDEGQPAYAPGLYTVHLSSFKVGQFGSLMIDRLRLVPAK [V35C I47C], the “ddG of mutation (higher = less stable)” value worked out at 7.1 kcal/mol, the denaturant m value came out at 4.9 kcal/mol/M, the “denaturant midpoint” value came to 0.99 M and the unfolding free energy was determined as 1.9 kcal/mol.
